Target: Human SOCS4 (amino acids 274-437) (human, UniProt Q8WXH5 274-437)
Assay: crystal structure; ternary complex coexpressed and purified; crystals at 4°C from 10% PEG6000, 2M NaCl; molecular replacement, refined to 2.5 Å
Settings: both partners purified

Chain of Human SOCS4 (amino acids 274-437) (Q8WXH5 274-437): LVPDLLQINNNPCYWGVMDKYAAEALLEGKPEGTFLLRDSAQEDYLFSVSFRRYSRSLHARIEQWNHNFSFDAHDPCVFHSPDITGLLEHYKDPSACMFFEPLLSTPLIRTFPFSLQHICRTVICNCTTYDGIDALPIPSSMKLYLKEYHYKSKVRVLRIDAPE

- binding result: binds
B1: ElonginB (natural protein, human)
chain: MDVFLMIRRHKTTIFTDAKESSTVFELKRIVEGILKRPPDEQRLYKDDQLLDDGKTLGECGFTSQTARPQAPATVGLAFRADDTFEALCIEPFSSPPELPDVMKPQDSGSSANEQAVQ

Reference: PMC2225448 (Structure(London, England:1993), 2007)
